Protein stability index data for 94 variants are collected here from the supplement of paper PMC10567573.

Sequences and labels used below:
B1: ADAMTS4 (parent)
chain: HVDPEEPWSPCSARFITDFLDNGY
B2: NFE2L1 (parent)
chain: TLDGYGIHPKSIDLDNYFTARRLL
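Further: lentivirally expressed fusions sorted by FACS into six bins by GFP to DsRed ratio, PSI derived from sequencing read proportions per bin multiplied by bin number.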

The first data set covers variants of B1. Put plainly: protein stability index of a GFP-peptide fusion (GPS, HEK-293T) (PSI 1-6); higher = more stable. The note with it: c terminus: a fixed tail appended.
For HCDPEEPWSPCSARFITDFLDNGY [V2C], the protein stability index is 2.09. For HTDPEEPWSPCSARFITDFLDNGY [V2T], the protein stability index is 2.2. For HMDPEEPWSPCSARFITDFLDNGY [V2M], the protein stability index worked out at 2.75. On the same count and under the same terms, with HSDPEEPWSPCSARFITDFLDNGY [V2S] the figure was 2.55; with HFDPEEPWSPCSARFITDFLDNGY [V2F], 2.14. Still for that read-out and setting: the value for HKDPEEPWSPCSARFITDFLDNGY [V2K] was 2.62.

As to HADPEEPWSPCSARFITDFLDNGY [V2A], the protein stability index came out at 2.36. Take HQDPEEPWSPCSARFITDFLDNGY [V2Q]: the protein stability index was 2.16. On the same count and under the same terms, the value for HLDPEEPWSPCSARFITDFLDNGY [V2L] was 2.23.

Consider HGDPEEPWSPCSARFITDFLDNGY [V2G], for which the protein stability index turned out to be 2.9. The same measure, in the same setting: with HDDPEEPWSPCSARFITDFLDNGY [V2D] the figure was 3. Still for that read-out and setting: with HWDPEEPWSPCSARFITDFLDNGY [V2W] the figure was 2.08; with HEDPEEPWSPCSARFITDFLDNGY [V2E], 3.19; with HYDPEEPWSPCSARFITDFLDNGY [V2Y], 2.05. As to HRDPEEPWSPCSARFITDFLDNGY [V2R], the protein stability index amounted to 2.4. For HNDPEEPWSPCSARFITDFLDNGY [V2N], the protein stability index came out at 2.48. Still for that read-out and setting: with HIDPEEPWSPCSARFITDFLDNGY [V2I] the figure was 2.56. On the same count and under the same terms, the value for HPDPEEPWSPCSARFITDFLDNGY [V2P] was 2.23.

For HHDPEEPWSPCSARFITDFLDNGY [V2H], the protein stability index came to 2.37. Same read-out and setting: the value for HVFPEEPWSPCSARFITDFLDNGY [D3F] was 1.79. Consider HVIPEEPWSPCSARFITDFLDNGY [D3I], for which the protein stability index amounted to 1.55. As for HVHPEEPWSPCSARFITDFLDNGY [D3H], the protein stability index turned out to be 1.98. As for HVEPEEPWSPCSARFITDFLDNGY [D3E], the protein stability index was 1.75. Same read-out and setting: with HVKPEEPWSPCSARFITDFLDNGY [D3K] the figure was 1.76. The same measure, in the same setting: with HVGPEEPWSPCSARFITDFLDNGY [D3G] the figure was 2.78; with HVMPEEPWSPCSARFITDFLDNGY [D3M], 1.89. The same measure, in the same setting: with HVAPEEPWSPCSARFITDFLDNGY [D3A] the figure was 1.69. Consider HVCPEEPWSPCSARFITDFLDNGY [D3C], for which the protein stability index turned out to be 2.63. On the same count and under the same terms, with HVLPEEPWSPCSARFITDFLDNGY [D3L] the figure was 1.78. Still for that read-out and setting: with EVDPEEPWSPCSARFITDFLDNGY [H1E] the figure was 2.76; with GVDPEEPWSPCSARFITDFLDNGY [H1G], 2.81; with YVDPEEPWSPCSARFITDFLDNGY [H1Y], 2.29. For MVDPEEPWSPCSARFITDFLDNGY [H1M], the protein stability index amounted to 1.95. On the same count and under the same terms, the value for DVDPEEPWSPCSARFITDFLDNGY [H1D] was 2.4; that for LVDPEEPWSPCSARFITDFLDNGY [H1L] was 1.78. Take CVDPEEPWSPCSARFITDFLDNGY [H1C]: the protein stability index stood at 2.17.

In the case of KVDPEEPWSPCSARFITDFLDNGY [H1K], the protein stability index was 1.91. On the same count and under the same terms, the value for SVDPEEPWSPCSARFITDFLDNGY [H1S] was 2.54.

Take FVDPEEPWSPCSARFITDFLDNGY [H1F]: the protein stability index stood at 3.17. As to RVDPEEPWSPCSARFITDFLDNGY [H1R], the protein stability index stood at 2.26. For the variant IVDPEEPWSPCSARFITDFLDNGY [H1I], the protein stability index stood at 2.1. Still for that read-out and setting: the value for QVDPEEPWSPCSARFITDFLDNGY [H1Q] was 2.31; that for VVDPEEPWSPCSARFITDFLDNGY [H1V] was 2.04.

As for AVDPEEPWSPCSARFITDFLDNGY [H1A], the protein stability index amounted to 2.09. For the variant PVDPEEPWSPCSARFITDFLDNGY [H1P], the protein stability index came out at 2.57.

NVDPEEPWSPCSARFITDFLDNGY [H1N]: the protein stability index was 2.37. On to WVDPEEPWSPCSARFITDFLDNGY [H1W], for which the protein stability index is 1.78. The same measure, in the same setting: with TVDPEEPWSPCSARFITDFLDNGY [H1T] the figure was 2.77.

In another data set the parent is B2. The description is as above. The note with it: c terminus: a fixed tail appended.
For the variant TLDGYGIHPKSIDLDNAFTARRLL [Y17A], the protein stability index turned out to be 1.88.

Turning to TLDGYGIHPKSIDLDNVFTARRLL [Y17V], the protein stability index was 2.21. On the same count and under the same terms, the value for TLDGYGIHPKSIDLDNDFTARRLL [Y17D] was 2.64; that for TLDGYGIHPKSIDLDNSFTARRLL [Y17S] was 2.55; that for TLDGYGIHPKSIDLDNGFTARRLL [Y17G] was 2.32. The same measure, in the same setting: the value for TLDGYGIHCKSIDLDNYFTARRLL [P9C] was 1.62; that for TLDGYGIHKKSIDLDNYFTARRLL [P9K] was 2.24; that for TLDGYGIHHKSIDLDNYFTARRLL [P9H] was 2.14. The same measure, in the same setting: with TLDGYGIHFKSIDLDNYFTARRLL [P9F] the figure was 1.55. Regarding TLDGYGIHYKSIDLDNYFTARRLL [P9Y], the protein stability index was found to be 1.68. The same measure, in the same setting: with TLDGYGIHLKSIDLDNYFTARRLL [P9L] the figure was 2.7. With TLDGYGIHMKSIDLDNYFTARRLL [P9M], the protein stability index worked out at 2.05.

With TLDGYGIHVKSIDLDNYFTARRLL [P9V], the protein stability index worked out at 1.5. TLDGYGIHSKSIDLDNYFTARRLL [P9S]: the protein stability index was determined as 1.71. The same measure, in the same setting: with TNDGYGIHPKSIDLDNYFTARRLL [L2N] the figure was 2.06; with TWDGYGIHPKSIDLDNYFTARRLL [L2W], 2.37. On the same count and under the same terms, the value for TMDGYGIHPKSIDLDNYFTARRLL [L2M] was 2.04. Consider TGDGYGIHPKSIDLDNYFTARRLL [L2G], for which the protein stability index is 1.86. Still for that read-out and setting: the value for TADGYGIHPKSIDLDNYFTARRLL [L2A] was 1.58; that for TEDGYGIHPKSIDLDNYFTARRLL [L2E] was 2.05. On the same count and under the same terms, the value for TPDGYGIHPKSIDLDNYFTARRLL [L2P] was 2.68; that for TYDGYGIHPKSIDLDNYFTARRLL [L2Y] was 1.74. With TLDGYGIHPKLIDLDNYFTARRLL [S11L], the protein stability index amounted to 2. Same read-out and setting: with TLDGYGIHPKTIDLDNYFTARRLL [S11T] the figure was 1.97. Consider TLDGYGIHPKRIDLDNYFTARRLL [S11R], for which the protein stability index was found to be 1.97. For TLDGYGIHPKAIDLDNYFTARRLL [S11A], the protein stability index stood at 1.49.

With TLDGYGIHPKHIDLDNYFTARRLL [S11H], the protein stability index was found to be 1.89. The same measure, in the same setting: with TLDGYGIHPKPIDLDNYFTARRLL [S11P] the figure was 2.04; with TLDGYGIHPKSIDLDNYFTIRRLL [A20I], 1.77; with TLDGYGIHPKSIDLDNYFTRRRLL [A20R], 2.17. TLDGYGIHPKSIDLDNYFTMRRLL [A20M]: the protein stability index turned out to be 1.96. On the same count and under the same terms, the value for TLDGYGIHPKSIDLDNYFTNRRLL [A20N] was 1.49. Turning to TLDGYGIHPKSIDLDNYFTFRRLL [A20F], the protein stability index came to 1.8. The same measure, in the same setting: the value for TLDGYGIHPKSIDLDNYFTWRRLL [A20W] was 2.04; that for TLDGYGIHPKSIDLDSYFTARRLL [N16S] was 2.6; that for TLDGYGIHPKSIDLDPYFTARRLL [N16P] was 1.98. Regarding TLDGYGIHPKSIDLDGYFTARRLL [N16G], the protein stability index was found to be 1.21. Same read-out and setting: with TLDGYGIHPKSIDLDFYFTARRLL [N16F] the figure was 2.63; with TLDGYGIHPKSGDLDNYFTARRLL [I12G], 2.43. Same read-out and setting: the value for TLDGYGIHPKSEDLDNYFTARRLL [I12E] was 2.99; that for TLDGYGIHPKSCDLDNYFTARRLL [I12C] was 2.18; that for TLDGYGIHPKSWDLDNYFTARRLL [I12W] was 2.05. Still for that read-out and setting: with TLDGYGIHPKSNDLDNYFTARRLL [I12N] the figure was 1.93; with TLDGEGIHPKSIDLDNYFTARRLL [Y5E], 2.21. Take TLDGCGIHPKSIDLDNYFTARRLL [Y5C]: the protein stability index was determined as 2.01. On the same count and under the same terms, the value for TLDGQGIHPKSIDLDNYFTARRLL [Y5Q] was 1.48.
